Reference: patent EP3083697B1

Experiments:
[1] = target: ENO1 deletion mutant Δ1-189 (human) (UniProt P06733); experiment: ELISA, mutant protein coated, 10 microgram EN10 mAb
[2] = target: ENO1 deletion mutant Δ1-297 (human) (UniProt P06733); experiment: as above

B1: EN10 mAb (antibody, V domains shown)
VH: EVQLQQSGPELVKPGASVKMSCKASGYTFTSCVMNWVKQKPGQGLEWIGYINPYNDGTKYNEKFKGKATLTSDKSSSTAYMELSSLTSEDSAVYYCAREGFYYGNFDNWGQGTTLTVSS
VL: DIQMTQSPASLSASVGETVTITCRASENIYSYLTWYQQKQGKSPQLLVYNAKTLPEGVPSRFSGSGSGTQFSLKINSLQPEDFGSYYCQHHYGTPYTFGGGTKLEITR
In the case of B1, the OD405 [1] is reported as 1.43 OD405, the percent of the OD405 of wild type ENO1 [1] is reported as 42% and the OD405 [2] is reported as 1.56 OD405. It also gave a percent of the OD405 of wild type ENO1 [2] of 39%.
